Source: article PMC2954905, “Controlling Cellular P-TEFb Activity by the HIV-1 Transcriptional Transactivator Tat”

B1: 5'HPdm+pm (in vitro) (structured_RNA)
RNA: GGAUGUGAGGGCCUAGACCGACCGACAUCUGUCACCCCAUUGAUCGCCAGGGUUGAUUCGGCUCUAGACCGACGCUAGGCGGGUGUCCCCUUCCUCCCUCACCGCUCCAUG

Target: HEXIM1 (UniProt O94992 1-359)
Experiment: EMSA; EMSA: 50 mM Tris-HCl pH 8.0, 100 mM NaCl, 14.4 mM 2-mercaptoethanol, 20 ng/ul E. coli tRNA, RT; ~2 fmol RNA; 4-5% native PAGE in 0.5x TBE, 2.5% glycerol
Conditions: protein: recombinant, hairpin

HEXIM1, sequence (O94992 whole entry): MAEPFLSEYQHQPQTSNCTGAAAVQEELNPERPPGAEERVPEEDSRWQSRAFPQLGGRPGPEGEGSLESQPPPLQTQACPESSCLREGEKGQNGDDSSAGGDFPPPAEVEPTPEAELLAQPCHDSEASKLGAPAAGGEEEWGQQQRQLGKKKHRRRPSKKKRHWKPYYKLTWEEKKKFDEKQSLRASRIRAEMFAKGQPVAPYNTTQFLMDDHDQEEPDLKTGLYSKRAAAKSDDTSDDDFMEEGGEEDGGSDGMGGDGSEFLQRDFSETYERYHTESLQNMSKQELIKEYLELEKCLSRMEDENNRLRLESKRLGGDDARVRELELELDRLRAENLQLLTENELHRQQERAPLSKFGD

| Binder | binding result (label: 32P internal) | binding result (label: 32P, GGAA tetraloop) |
| --- | --- | --- |
| B1 | no binding | – |
| GGGCCACUGACCCCAUUGAUCGGAAGAUCUGGCUGGCUACAGUGGAUC (structured_RNA) [DHBS] | – | binds |
